From patent US20240058441A1 (published 2024) come the findings set out here.

This test concerns the target KRas protein (purified) (UniProt P01116 1-186). Nature of the test: SPR. A general note: In SPR one partner is held on a chip, and binding of the other changes the refractive index at the surface.

B1: TKDm molecule (control molecule of TKD with mutated CTM, CTMmt, incapable of being recognized by lysosome) (VHH)
VHH: DVQLQESGGGLVQAGGSLRLSCVASGRTFSTYPTGWFRQAPGKEREFVARINLSGGITNYADSVKGRFTISRDNAKNTVYLQMNSLKPEDTAVYYCGGGSTTWAGGIPTNFDYWGQGTQVTVSS
The term Kd denotes a measure of binding affinity in units of concentration. Lower therefore signals tighter binding. B1: the affinity, expressed as Kd, was 1.09 nM.

B2: TKD molecule (nanobody-mediated KRas protein targeting degradation system; fusion protein BR2 - anti-KRas nanobody VHH - CTM) (VHH)
VHH: DVQLQESGGGLVQAGGSLRLSCVASGRTFSTYPTGWFRQAPGKEREFVARINLSGGITNYADSVKGRFTISRDNAKNTVYLQMNSLKPEDTAVYYCGGGSTTWAGGIPTNFDYWGQGTQVTVSS
The molecule B2 yielded a Kd of 7.24 nM.
